Reference: the supplement of paper PMC12042874
± gives the uncertainty stated by the source.

Experiment: amyloid nucleation score (Sup35N fusion, yeast selection) (log enrichment); library NNK3; higher = more nucleation; inactive = no reads after selection
Procedure, shortened: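 Output and input plasmid inserts were sequenced by Illumina after psi-negative yeast carrying Sup35N fused to peptides of 20 random codons had been induced 24 hours with 100 μM copper sulfate and grown 7 days at 30°C on medium lacking adenine and uracil. The nucleation score is the DiMSum log enrichment of output over input reads, centred on the mode score of non-aggregating sequences. Sequences with under 100 input reads were excluded.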

Substance	amyloid nucleation score
VGNLCVLKGTTIMFGIMGST	1.18 ± 0.14
VGQYGRFDTSQFCVFVVGE	inactive
VGRAEWLC	inactive
VGSPWSYKG	inactive
VGTGVM	inactive
VGTLRSAGIIMVSRELVMRV	inactive
VGWTVGYKW	inactive
VGYAKYPSNRVRIYRGFENV	inactive
VHFKCLRRCVGVIDRCINRH	inactive
VHFSVMVGKKDDPSLF	inactive
VHLSWFSIIVRVDEGDWARR	-0.839 ± 1.5
VHLYADPDVMQYNRWDVVGY	inactive
VHLYEFRLNAACSCPSDRYG	inactive
VHVRWVVRMVSWKYLAGILL	inactive
VHVVLIIWTSHQLTCADLAY	inactive
VHYIVNYRGRILV	inactive
VHYYEE	inactive
VIGQGLCWGFSTVDIP	inactive
VIGVNIWSCL	1.29 ± 0.1
VILQMT	inactive
VIMFVAIGWLLR	inactive
VINRHVCGRVGMLTGFDGLT	inactive

Substance	amyloid nucleation score
VINRST	0.979 ± 0.11
VIQGLYSSFMHVYG	inactive
VIRRHWR	inactive
VISCCP	inactive
VISISRFDGWQRAHVKVRVS	inactive
VISVGLVIKRLYSMWYLAAG	inactive
VITADLRSMIWDVPKNVY	0.92 ± 0.16
VITVSVTHNNANFFQMTDGM	2.88 ± 0.055
VIVICFIFLMNVIPIQACWT	inactive
VIVRDSLISVSSTIRDFVCG	inactive
VIWGTPQFSFAEVREFDLVH	inactive
VKGQWR	inactive
VKHQVDCLIVVI	inactive
VKKSYWAERGFFGA	inactive
VKMTGDVVTLHLRDLINCWA	inactive
VKTYFTSLRFVISMGWLNNQ	inactive
VKVLWFSDCSSLYCHSVDGP	inactive
VKVMMT	inactive
VLADCWRSGIHWIGHTYLIN	inactive
VLASSKGICPMPSTSEFSFH	inactive
VLCCANKYSFTNQQSGSASE	0.952 ± 0.1
VLDLTKYSFLTI	inactive

Substance	amyloid nucleation score
VLFAKRLDLTCVFLFIGRVW	inactive
VLFFSAYWMFQKVGVLVPSK	inactive
VLFMMMERHSRSRSRGSLQ	0.858 ± 0.23
VLGCFVVKGSKFVDLPEFHR	1.3 ± 0.085
VLGDSNFF	inactive
VLGMNEPCSFW	inactive
VLIMYKSGRYVIGSLVLMCL	inactive
VLLFI	inactive
VLLLFWAPVNAGTVWYLWNR	inactive
VLNFIMAWYNFRFVWGSMGV	inactive
VLRKARVVIRSYSMEVRFRS	inactive
VLRSANCCCGFD	inactive
VLSCVAIRSYILHKVSVGIC	inactive
VLSVLFFLLLSPPIRFQVEG	inactive
VLTVVAKAWFPVFRPTWFLL	inactive
VLVCSAMNGFSFHNLSH	0.872 ± 0.15
VLVESDLSVIATVSGLLCAR	inactive
VLVVCSLSAC	inactive
VLWDGF	inactive
VLYSYRYSYSVGLCTEMHRF	inactive
VMCFYRLLNVIQWTTANVFG	inactive
VMDIVHPSSDAVVGRA	-0.125 ± 0.53
